Measurements: the Human Domainome abundance scans (Beltran et al. 2025)
± gives the uncertainty stated by the source.

B1: Zinc finger MYM-type protein 3, residues 405 to 444; numbered along this chain, Q14202 (parent)
chain: DATRCSICQKTGEVLHEVSNGSVVHRLCSDSCFSKFRANK

Variants of: B1
Experiment: abundance fitness (aPCA) (normalised: wild type 0, dead -1); higher = more abundant; growth selection in yeast, the domain comes from the species named
Settings: Homo sapiens

Question: Which abundance fitness does the source give for S22M here?
Answer: 0.021 ± 0.068

Question: With S22T as the variant, how does the abundance fitness read?
Answer: 0.018 ± 0.058

Question: With S22R as the variant, how does the abundance fitness read?
Answer: -0.136 ± 0.051

Question: With K35E as the variant, how does the abundance fitness read?
Answer: 0.166 ± 0.056

Question: For K35L, which abundance fitness is on record?
Answer: -0.127 ± 0.055

Question: Which abundance fitness does the source give for K35A here?
Answer: 0.119 ± 0.054

Question: Which abundance fitness does the source give for K35Y here?
Answer: -0.175 ± 0.26

Question: With K35N as the variant, how does the abundance fitness read?
Answer: 0.03 ± 0.34

Question: Which abundance fitness does the source give for K35W here?
Answer: -0.84 ± 0.084

Question: With S34W as the variant, how does the abundance fitness read?
Answer: -0.187 ± 0.075

Question: With S34D as the variant, how does the abundance fitness read?
Answer: 0.203 ± 0.1

Question: With S34F as the variant, how does the abundance fitness read?
Answer: -0.18 ± 0.087

Question: With S34I as the variant, how does the abundance fitness read?
Answer: -0.126 ± 0.12

Question: With S34T as the variant, how does the abundance fitness read?
Answer: 0.125 ± 0.06

Question: For S34E, which abundance fitness is on record?
Answer: 0.32 ± 0.062

Question: With S31A as the variant, how does the abundance fitness read?
Answer: -0.063 ± 0.058

Question: With S31G as the variant, how does the abundance fitness read?
Answer: 0.055 ± 0.052

Question: With S31H as the variant, how does the abundance fitness read?
Answer: -0.16 ± 0.093

Question: With K10P as the variant, how does the abundance fitness read?
Answer: -0.877 ± 0.1

Question: With K10Q as the variant, how does the abundance fitness read?
Answer: -0.208 ± 0.071

Question: Which abundance fitness does the source give for V23I here?
Answer: -0.087 ± 0.11

Question: With V23F as the variant, how does the abundance fitness read?
Answer: -0.01 ± 0.077

Question: For V23L, which abundance fitness is on record?
Answer: -0.317 ± 0.059

Question: For V23H, which abundance fitness is on record?
Answer: 0.092 ± 0.082

Question: Which abundance fitness does the source give for V23Q here?
Answer: 0.181 ± 0.062

Question: Which abundance fitness does the source give for V23A here?
Answer: -0.085 ± 0.057

Question: Which abundance fitness does the source give for V23D here?
Answer: 0.079 ± 0.077

Question: Which abundance fitness does the source give for V23K here?
Answer: 0.114 ± 0.064

Question: Which abundance fitness does the source give for V23T here?
Answer: 0.126 ± 0.061

Question: For G12Q, which abundance fitness is on record?
Answer: -0.228 ± 0.066

Question: With G12V as the variant, how does the abundance fitness read?
Answer: -0.137 ± 0.062

Question: Which abundance fitness does the source give for H25Q here?
Answer: -0.038 ± 0.065

Question: For H25A, which abundance fitness is on record?
Answer: -0.122 ± 0.055

Question: With H25T as the variant, how does the abundance fitness read?
Answer: -0.046 ± 0.056

Question: For H25M, which abundance fitness is on record?
Answer: -0.129 ± 0.066

Question: For H25W, which abundance fitness is on record?
Answer: -0.247 ± 0.061

Question: Which abundance fitness does the source give for F36N here?
Answer: -0.772 ± 0.14

Question: For F36K, which abundance fitness is on record?
Answer: -0.426 ± 0.1

Question: For F36Y, which abundance fitness is on record?
Answer: -0.22 ± 0.089

Question: With F36R as the variant, how does the abundance fitness read?
Answer: -0.236 ± 0.054

Question: Which abundance fitness does the source give for A38P here?
Answer: -0.354 ± 0.068

Question: Which abundance fitness does the source give for A38E here?
Answer: 0.015 ± 0.059

Question: For A38W, which abundance fitness is on record?
Answer: -0.353 ± 0.059

Question: Which abundance fitness does the source give for A38V here?
Answer: -0.233 ± 0.071

Question: For A38K, which abundance fitness is on record?
Answer: -0.228 ± 0.086

Question: With A38I as the variant, how does the abundance fitness read?
Answer: -0.215 ± 0.079

Question: With A38R as the variant, how does the abundance fitness read?
Answer: -0.199 ± 0.052

Question: Which abundance fitness does the source give for N39W here?
Answer: -0.192 ± 0.076

Question: Which abundance fitness does the source give for N39S here?
Answer: 0.003 ± 0.067

Question: Which abundance fitness does the source give for N39T here?
Answer: 0.112 ± 0.065

Question: For N39A, which abundance fitness is on record?
Answer: 0.015 ± 0.062

Question: Which abundance fitness does the source give for N39I here?
Answer: -0.022 ± 0.089

Question: Which abundance fitness does the source give for T3N here?
Answer: 0.025 ± 0.091

Question: With T3Q as the variant, how does the abundance fitness read?
Answer: 0.205 ± 0.061

Question: For T3M, which abundance fitness is on record?
Answer: 0.426 ± 0.061

Question: For T3L, which abundance fitness is on record?
Answer: -0.061 ± 0.056

Question: Which abundance fitness does the source give for Q9E here?
Answer: 0.023 ± 0.075

Question: Which abundance fitness does the source give for Q9D here?
Answer: -0.293 ± 0.11

Question: For Q9F, which abundance fitness is on record?
Answer: -0.087 ± 0.075

Question: With E17A as the variant, how does the abundance fitness read?
Answer: -0.759 ± 0.068

Question: For E17T, which abundance fitness is on record?
Answer: -0.089 ± 0.062

Question: For E17V, which abundance fitness is on record?
Answer: -0.487 ± 0.058

Question: Which abundance fitness does the source give for E17C here?
Answer: -0.358 ± 0.081

Question: With V18E as the variant, how does the abundance fitness read?
Answer: -0.15 ± 0.059

Question: For V18P, which abundance fitness is on record?
Answer: -0.258 ± 0.06

Question: Which abundance fitness does the source give for V18H here?
Answer: -0.209 ± 0.1

Question: With V18A as the variant, how does the abundance fitness read?
Answer: -0.183 ± 0.055

Question: For I7S, which abundance fitness is on record?
Answer: -0.269 ± 0.063

Question: For I7L, which abundance fitness is on record?
Answer: -0.146 ± 0.054

Question: With I7K as the variant, how does the abundance fitness read?
Answer: -0.508 ± 0.098

Question: For I7N, which abundance fitness is on record?
Answer: 0.209 ± 0.11

Question: With I7G as the variant, how does the abundance fitness read?
Answer: -0.12 ± 0.051

Question: For I7V, which abundance fitness is on record?
Answer: -0.037 ± 0.054

Question: Which abundance fitness does the source give for I7E here?
Answer: -0.332 ± 0.065

Question: With I7C as the variant, how does the abundance fitness read?
Answer: -0.463 ± 0.092

Question: For L27P, which abundance fitness is on record?
Answer: -0.458 ± 0.078

Question: With L27I as the variant, how does the abundance fitness read?
Answer: -0.129 ± 0.12

Question: For L27A, which abundance fitness is on record?
Answer: -0.393 ± 0.059

Question: Which abundance fitness does the source give for L27W here?
Answer: -0.205 ± 0.056

Question: Which abundance fitness does the source give for S6P here?
Answer: -0.009 ± 0.073

Question: For S6W, which abundance fitness is on record?
Answer: -0.182 ± 0.063

Question: Which abundance fitness does the source give for S6I here?
Answer: -0.021 ± 0.16

Question: Which abundance fitness does the source give for S6A here?
Answer: 0.104 ± 0.054
